From PMC6470172, “Conformational plasticity in the KcsA potassium channel pore helix revealed by homo-FRET studies” (Scientific Reports, 2019)

Columns and labels:
[1] = target: the molecule itself; experiment: SDS-PAGE of the tetramer; 13.5% SDS-PAGE of the detergent-solubilised protein; 20 mM Hepes pH 7 or 10 mM succinic acid pH 4, 5 mM DDM, 200 mM Cs+, Rb+, K+ or Na+, or TBA+
[2] = target: the molecule itself; experiment: FRET or BRET; homo-FRET between the W67 residues of the subunits, read by steady-state and time-resolved fluorescence anisotropy; 6 uM protein (monomer based), 5 mM DDM, pH 7 or pH 4, saturating monovalent cations or TBA+, room temperature

Row | Protein | stoichiometry N [1] | binding result [2]
1 | KcsA W26,68,87,113F quadruple mutant channel (W67 KcsA) (natural protein, S. lividans, UniProt P0A334 1-160, looked up, KcsA potassium channel cloned from S. lividans; single Trp (W67) left per subunit; called full-length in the discussion; Homotetramer; also called KcsA W67) MPPMLSGLLARLVKLLLGRHGSALHFRAAGAATVLLVIVLLAGSYLAVLAERGAPGAQLITYPRALWFSVETATTVGYGDLYPVTLFGRLVAVVVMVAGITSFGLVTAALATFFVGREQERRGHFVRHSEKAAEEAYTRTTRALHERFDRLERMLDDNRR | 4 | 
2 | KcsA W26,68,87,113F E71A mutant channel (W67 E71A KcsA) (natural protein, S. lividans, UniProt P0A334 1-160, looked up, KcsA potassium channel cloned from S. lividans; also called E71A W67 KcsA; E71A W67) MPPMLSGLLARLVKLLLGRHGSALHFRAAGAATVLLVIVLLAGSYLAVLAERGAPGAQLITYPRALWFSVATATTVGYGDLYPVTLFGRLVAVVVMVAGITSFGLVTAALATFFVGREQERRGHFVRHSEKAAEEAYTRTTRALHERFDRLERMLDDNRR |  | binds
